# From the supplement of paper PMC12042874
# ± gives the uncertainty stated by the source.
# Experiment: amyloid nucleation score (Sup35N fusion, yeast selection) (log enrichment); library NNK1; higher = more nucleation; inactive = no reads after selection
# Outline: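 Growth for 7 days at 30°C on medium lacking adenine and uracil followed a 24-hour induction with 100 μM copper sulfate of psi-negative yeast expressing peptides of 20 random codons fused to Sup35N. Input and output plasmid inserts were sequenced with Illumina, and sequences with under 100 input reads were excluded. Nucleation score is the DiMSum log enrichment of output over input reads, centred on the mode score of non-aggregating sequences.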
row,Substance,amyloid nucleation score
1,GVVLGYRCLNMGLKALWSYV,-0.248 ± 0.48
2,SFKRYRRYRSKRVRRIGRGR,0.677 ± 0.52
3,PRVQRPPKVRTAELTTGPSQ,-0.423 ± 0.37
4,FSLFDGMVLVNS,-0.281 ± 0.39
5,SMCLCVYIWIALYGWVMLIP,0.217 ± 0.21
6,RYMLHDLIFPVSVVMRVSYE,0.92 ± 0.22
7,MIWVWNRYIIPYFRFCGATL,0.268 ± 1.2
8,VDHISCCVFVMAVHMELALR,-1.07 ± 1.8
9,YPPRAQDMTRSAQRKCQRGV,inactive
10,YFSLFYCKVSGESTLYFCGH,5.88 ± 0.066
11,IVFLKLWEQVGWTVIDNLGV,-0.552 ± 1.4
12,LWHEI,0.427 ± 0.51
13,RCLSQNYCLSLASRLEHMCI,0.572 ± 1.1
14,GVGRRMSMWYVCDAGWEAWR,3.16 ± 0.094
15,SVLRRQDFTKLLMFRSGPLG,0.424 ± 0.38
16,TLVFRYKSDGCQSLRVRLTF,0.084 ± 0.32
17,RALCLWTCKSYMFRN,-0.13 ± 1.1
18,LGSGQGVNLSALPRFEYACR,0.527 ± 0.44
19,MYASWSVF,-0.223 ± 0.34
20,CFSISVTAYHSKSAT,4.14 ± 0.099
21,VRTYWTYANWIFMYKKRAQA,-1.85 ± 2.4
22,GFVILDSNPLRFNCFWVDAF,0.325 ± 0.29
23,YSFALSVG,0.874 ± 0.43
24,FVLLELVSVVRVLHYDGIWD,0.079 ± 0.51
25,FLHFMVY,0.027 ± 0.64

row,Substance,amyloid nucleation score
1,TMPNSFRWCLNGRVRRDRFC,-0.215 ± 0.97
2,SKMCY,-0.692 ± 0.43
3,HCTRINVHFYNIYTVLVSFS,5.33 ± 0.073
4,RSQRGRPWEGGLSTSLGVRR,-0.736 ± 1.2
5,ILCALMRFLVETLHLINFWK,-0.278 ± 0.61
6,LAYGWKFDNSCLL,1.29 ± 0.68
7,YKLPAAIDRMIVVQCNRPSI,-0.246 ± 0.61
8,EGRLTVE,-0.011 ± 0.32
9,CSYLSLRRKCVDTQFLYDMM,-0.199 ± 0.47
10,HSGSAE,-1.28 ± 1.3
11,YLVPELYEMSNS,1.38 ± 0.79
12,VEDAIDACKFNCDSIDMTTD,-0.206 ± 0.75
13,MVHCRQI,0.219 ± 0.32
14,NYHLGCCNISMF,7.856 ± 0.047
15,PNSYASVHSNHKDIREAMYL,0.021 ± 0.44
16,TSWFAFANWVLPSFHYTPVP,0.43 ± 0.43
17,LRKWSERGPWP,0.048 ± 0.46
18,DRNYVGELTEFTGVMGRGRQ,-0.858 ± 1.1
19,DWLVRGVFPYVGMLDIALTY,0.356 ± 0.72
20,IGENCRWRMSSRCGFNGNDT,-0.37 ± 0.43
21,SYTRPILIWSLNRFSAG,1.26 ± 0.34
22,HGYSNNVARYWA,0.372 ± 1.4
23,NLNSMAFV,0.662 ± 0.56
24,KLKGG,-0.27 ± 0.3
25,NPFYKT,0.268 ± 0.37

row,Substance,amyloid nucleation score
1,YLQGENNWRVVGQRLSTSPA,0.03 ± 0.4
2,RVLLSSVSDM,-0.766 ± 2.4
3,CGRTYRGLS,0.959 ± 0.72
4,LKEDISPSELHTQLC,0.81 ± 0.54
5,LMFKGEYCWLVIWQGLTWGV,0.278 ± 0.52
6,WETGIRMFVKCRR,0.906 ± 0.33
7,RWLGRRMRAGFAYGAFRTGY,0.054 ± 0.8
8,WFGLQYMSWVSIESYGQAAW,0.875 ± 0.97
9,YSECQLSRARD,inactive
10,LVSQTYNMVARLRSSLARVN,0.243 ± 0.78
11,TFLYVWSTSDSYKK,0.148 ± 0.61
12,DLTVWSTIFDSMSTCEHRGG,0.257 ± 0.42
13,PREDRGLSWISGYYYYLVAG,-0.341 ± 0.47
14,CVNIRNQKQLSFAGLVDLSV,0.358 ± 0.59
15,TSQTMTCWGSAL,0.93 ± 0.4
16,VNVFYLMFQNIIIQVFLCVF,inactive
17,LRAHGAYRYQWEACCHNLG,-0.138 ± 0.36
18,KVFGTRPVRYETCRFLRLRS,-0.013 ± 0.34
19,RGILLSPSLLVYRLTT,-0.096 ± 1.2
20,FMFYTYHVNSYFSILCSVSN,0.655 ± 0.46
21,SPNCM,-0.358 ± 1.4
22,FDKSRVDRLSDKGRCCCVL,1.36 ± 0.69
23,THWGRVELMFFRSSKHRLT,-0.334 ± 1
24,VACNKLRYMCRCQYNMTVWF,-0.262 ± 0.62
25,DNYVMWVLEGLSYVLGNNRI,-0.087 ± 1

row,Substance,amyloid nucleation score
1,LEKINQVSGLDFRRIEFEPS,-0.172 ± 1.2
2,FLCPRSCHGPNTFDFIMWSF,0.198 ± 0.66
3,KSSYLFMTSWPYWVRGMSYA,0.01 ± 0.46
4,YNAARLFPYVNVWGII,-0.305 ± 1.3
5,MGKNMVANWILHHRHSQ,-0.343 ± 0.46
6,IRKFLFLFNALLSAPLLFHK,-0.2 ± 1.1
7,MGCLN,0.082 ± 0.62
8,EPYSLAIKGVHTLLRGSRKS,0.571 ± 0.29
9,KVKNRAFWPHMSLTYAMVPP,0.333 ± 0.39
10,KMEPGPRAKALGTNRRFLLK,inactive
11,ARTRVLMKQVQGFKSFTILH,0.192 ± 0.52
12,RYWSRQRLTDVYVFRLDMSR,-2.07 ± 2.4
13,YGSLIHMIRNEGLNIGGKSA,-0.51 ± 0.4
14,AQYELLMQRNWYVGKDLVRG,-0.192 ± 0.42
15,VLEYPSTSAARFSHRVKRK,8.434 ± 0.047
16,TVAGLT,-0.224 ± 0.71
17,WFWYIYM,1.54 ± 0.19
18,SAAGT,0.49 ± 0.66
19,DRRGRRYKVRRVCMVMESLG,0.703 ± 0.58
20,ERTICSVITMNHGSSAYQGS,-0.081 ± 0.47
21,DIRMVDWVRNRVQHVADGK,-0.892 ± 0.7
22,MFFGWLFHYLLSSTYMFVSL,-0.266 ± 0.72
23,WNYIEGASFSRMGEASNAPG,-0.944 ± 1.2
24,VAVQRPIFIVMWPQNLCISA,3.69 ± 0.13
25,GIFNYWRYYMVDV,0.673 ± 0.29

row,Substance,amyloid nucleation score
1,LKRVCNS,0.002 ± 0.63
2,PLFLVVTQMS,5.25 ± 0.073
3,DDLLH,0.387 ± 0.79
4,LLMVREDRRRFRSFGS,0.773 ± 0.76
5,SFESVVIVLKLNALFPCVST,-0.048 ± 0.28
6,VDNMLPFMGDYWDLFYGFLL,-0.217 ± 0.31
7,AYCLRN,0.211 ± 0.68
8,HTFSRRTGAGGSAKLT,0.972 ± 0.6
9,GLYLNGPVINMWVVVASREV,7.512 ± 0.044
10,RYPTGAKKLQMLNDVLMLYR,-0.479 ± 0.3
11,MMGNNQRSPYDMDREASITF,0.64 ± 0.43
12,TSVDG,0.162 ± 0.28
13,RMIKNYSIS,0.89 ± 0.55
14,TLNIVHLYME,4.5 ± 0.065
15,HNWCYQNKGHVRGNKLCFRY,-0.112 ± 0.63
16,VCGFWVWLYVGVYSSIPNSM,-0.015 ± 0.31
17,DVVSFSKVCVVCGLSWSASY,6.662 ± 0.06
18,YSFGVSTWLI,-0.396 ± 0.74
19,SVSWYAMLRLSEIRDRCKSF,0.278 ± 0.32
20,LINMYSMDMTTDHAPAYKLD,-0.302 ± 0.47
21,DGRRLNLIWLYRIFWN,-0.767 ± 0.37
22,SLYMT,0.192 ± 0.34
23,SVSVSCFVV,inactive
24,LWSPSQ,0.202 ± 0.56
25,VMYVPPMACSLS,-0.315 ± 0.77

row,Substance,amyloid nucleation score
1,PHVTGGSPCSKHSLRW,-0.716 ± 0.65
2,NSLLGYLYSYVVFYREHIVI,-0.326 ± 1.2
3,SRSRRANYGLCDIRYYNSFE,0.862 ± 0.43
4,FSKAMNFRDRTSSQSQ,-0.581 ± 1.2
5,KLWPSMSFLNCLWCIRERQL,4.48 ± 0.081
6,KFILRYMAWTRVDAVVSKPY,-0.496 ± 0.38
7,MGVVRLAS,-0.149 ± 0.27
8,TSCSLYIVMRCVWCIYRGAR,-0.866 ± 2.4
9,CGPELNESQG,-0.485 ± 0.67
10,NVIVKDLVLDNTFCVARVQA,-0.639 ± 0.42
11,VHASYIVRIRHLSGILEGAV,0.369 ± 0.46
12,ACWYLKRFLIMGKLSWS,-0.15 ± 0.3
13,WVSMKVVGVKHSGLDWRIL,0.012 ± 0.52
14,STILPIGWNFDCCITISSCV,0.372 ± 0.28
15,TYSEVRGYLLSRFAEVIDS,inactive
16,IKWWKLCGVVRIGNNCLRYL,0.64 ± 0.72
17,AWYMPIWFLAYFL,1.24 ± 0.14
18,FYTAYCGLALRLVTTQPCMS,-0.001 ± 0.49
19,HNYVWCSPC,7.694 ± 0.07
20,VGCLMWYALCGLE,0.347 ± 0.5
21,GCYQYWCRSFHVGEIPVP,-0.003 ± 1.1
22,RHFLFLLWARPTTCSIFMVG,-0.454 ± 0.77
23,NCRMTGCLSQRRQKECCNRI,-0.755 ± 0.51
24,LSVSFDVDVMVMIQVNCAIH,0.105 ± 0.39
25,RCCSFRLYLFTEG,4.78 ± 0.068

row,Substance,amyloid nucleation score
1,LLYSERTIIPVDRYT,-0.686 ± 0.48
2,LGSDDLLKVSFFFVSLGS,-0.087 ± 1.2
3,RGDLCGSRIFLWFALPVN,-0.726 ± 0.62
4,YSVDQYSNTMRLTLHMLVFV,0.455 ± 0.79
5,TCIWDKPVSSGL,-0.543 ± 1
6,GQRSLT,-0.088 ± 0.24
7,VGTDLNETVG,-0.646 ± 1.5
8,HDNISLG,3.39 ± 0.12
9,PVLRTSWTCWA,-0.254 ± 0.6
10,CCGGECLRVYRIMLGTVECT,0.329 ± 0.28
11,HPQYMLPT,0.569 ± 0.32
12,MIWPDGQRLMRPTLRMYKTS,0.279 ± 0.36
13,PCSKAFRAVNISEAKIDFGN,-0.416 ± 0.5
14,HMSHMLLQIYLWLVFWSSGV,1.42 ± 0.66
15,DWGPTNTFGPYQINNLTCSS,-1.91 ± 1.9
16,VCLSC,2.03 ± 0.41
17,DGCDGCLTYAKCGYLGFY,0.424 ± 0.67
18,VVQAVIR,-1.01 ± 1.7
19,RGINSFLMSFALCWAHWRGV,-0.072 ± 0.37
20,ARHRDALFRCEDMFGKVQYS,-0.296 ± 0.56
21,NCVVYDIEYICWNIGGKI,5.71 ± 0.077
22,HRLDLSCSWNMNKVRGDWCS,-0.058 ± 0.27
23,RLLRFGENFDCWKYLNVALE,0.004 ± 0.42
24,NTFYCCFLFFY,6.517 ± 0.044
25,NFSRIKYYGSYEVFIFAGNY,0.398 ± 0.79
